Assay results published in the supplement of paper PMC9112550, “Optimization of the antimicrobial peptide Bac7 by deep mutational scanning” (BMC Biology, 2022).

The sequences below were run on Escherichia coli TOP10 (assay: shrunken log2 fold change of peptide-encoding DNA abundance (4.5 h post-induction vs induction); higher = less antimicrobial activity (less host growth inhibition)). Conditions: time post-induction: 4.5 h; library: site-saturation at positions 5, 18, 19, 20.
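Note: peptides expressed intracellularly from a pBAD plasmid library in pooled LB shake-flask culture, induced with 0.3% L-arabinose, DNA abundance read by NGS, three biological replicates, DESeq2 with apeglm shrinkage.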

Sequence	shrunken log2 fold change
RRIRYRPPRLPRPRPRPKHPPRP	-0.155
RRIRKRPPRLPRPRPRPPMQPRP	0.439
RRIRVRPPRLPRPRPRPWAEPRP	-0.0172
RRIRQRPPRLPRPRPRPQKRPRP	-0.354
RRIRYRPPRLPRPRPRPCMSPRP	-0.282
RRIRKRPPRLPRPRPRPEKKPRP	-0.018
RRIRARPPRLPRPRPRPQPDPRP	0.254
RRIRRRPPRLPRPRPRPSQYPRP	0.0176
RRIRMRPPRLPRPRPRPTWWPRP	0.596
RRIRDRPPRLPRPRPRPYHPPRP	-0.449
RRIRERPPRLPRPRPRPNHCPRP	-0.0763
RRIRTRPPRLPRPRPRPRIAPRP	0.102
RRIRQRPPRLPRPRPRPTAFPRP	0.321
RRIRPRPPRLPRPRPRPRTDPRP	0.165
RRIRFRPPRLPRPRPRPQLSPRP	-0.0854
RRIRQRPPRLPRPRPRPERNPRP	0.0526
RRIRERPPRLPRPRPRPGHAPRP	0.304
RRIRCRPPRLPRPRPRPNNLPRP	-0.765
RRIRWRPPRLPRPRPRPKHCPRP	0.0806
RRIRFRPPRLPRPRPRPARLPRP	0.175
RRIRPRPPRLPRPRPRPMTVPRP	-0.038
RRIRMRPPRLPRPRPRPRHGPRP	0.83
RRIRLRPPRLPRPRPRPPGPPRP	0.359
RRIRTRPPRLPRPRPRPDTQPRP	0.0514
RRIRHRPPRLPRPRPRPTPHPRP	0.281

Sequence	shrunken log2 fold change
RRIRKRPPRLPRPRPRPNKEPRP	-0.0272
RRIRARPPRLPRPRPRPNMDPRP	-0.00909
RRIRRRPPRLPRPRPRPDVQPRP	-0.0867
RRIRYRPPRLPRPRPRPNHMPRP	-0.611
RRIRNRPPRLPRPRPRPYVNPRP	-0.121
RRIRYRPPRLPRPRPRPSAVPRP	-0.175
RRIRNRPPRLPRPRPRPDDYPRP	0.00129
RRIRQRPPRLPRPRPRPVVVPRP	-0.0728
RRIRYRPPRLPRPRPRPCRNPRP	-0.072
RRIRDRPPRLPRPRPRPWKQPRP	-0.0551
RRIRPRPPRLPRPRPRPNEAPRP	-0.151
RRIRCRPPRLPRPRPRPGCEPRP	0.159
RRIRQRPPRLPRPRPRPCNDPRP	-0.374
RRIRWRPPRLPRPRPRPIVGPRP	-0.0113
RRIRQRPPRLPRPRPRPGSWPRP	0.298
RRIRNRPPRLPRPRPRPTPAPRP	0.713
RRIRMRPPRLPRPRPRPWVDPRP	-0.034
RRIRMRPPRLPRPRPRPHAGPRP	0.222
RRIRCRPPRLPRPRPRPHGCPRP	-0.037
RRIRLRPPRLPRPRPRPKDDPRP	-0.0117
RRIRLRPPRLPRPRPRPYTAPRP	-0.863
RRIRWRPPRLPRPRPRPPYFPRP	-0.0123
RRIRERPPRLPRPRPRPSSEPRP	-0.137
RRIRIRPPRLPRPRPRPQIPPRP	-0.216
RRIRPRPPRLPRPRPRPHEHPRP	0.0125

Sequence	shrunken log2 fold change
RRIRGRPPRLPRPRPRPNVEPRP	0.183
RRIRFRPPRLPRPRPRPGRHPRP	0.0867
RRIRPRPPRLPRPRPRPNGRPRP	-0.00968
RRIRVRPPRLPRPRPRPCKYPRP	-0.725
RRIRPRPPRLPRPRPRPGILPRP	-0.557
RRIRFRPPRLPRPRPRPAMMPRP	0.0488
RRIRERPPRLPRPRPRPCQYPRP	-0.138
RRIRVRPPRLPRPRPRPRVMPRP	0.188
RRIRMRPPRLPRPRPRPWGDPRP	0.0652
RRIRFRPPRLPRPRPRPHDIPRP	-0.0788
RRIRYRPPRLPRPRPRPMSKPRP	3.29
RRIRFRPPRLPRPRPRPWARPRP	-0.114
RRIRFRPPRLPRPRPRPYYMPRP	-0.505
RRIRRRPPRLPRPRPRPKMVPRP	0.105
RRIRDRPPRLPRPRPRPPHVPRP	0.0772
RRIRNRPPRLPRPRPRPSMVPRP	-0.508
RRIRERPPRLPRPRPRPQNIPRP	-0.837
RRIRDRPPRLPRPRPRPTEVPRP	0.121
RRIRDRPPRLPRPRPRPMYRPRP	-0.0107
RRIRIRPPRLPRPRPRPGTCPRP	-0.188
RRIRGRPPRLPRPRPRPASMPRP	0.548
RRIRVRPPRLPRPRPRPRAKPRP	0.16
RRIRGRPPRLPRPRPRPMPLPRP	0.606
RRIRDRPPRLPRPRPRPGVWPRP	0.886
RRIRIRPPRLPRPRPRPPQVPRP	0.328
